# Test results taken from patent publication US20050208611A1, “Process for identifying compounds with fungicide activity based on UMP/CMP kinases from fungi” (priority 2003, published 2005).
# Experiments:
# [1] = system: Nc1ncnc2c1ncn2[C@@H]1O[C@H](COP(=O)(O)OP(=O)(O)OP(=O)(O)O)[C@@H](O)[C@H]1O; assay: purified protein, by the assay type; conditions: other: substrate Km of the recombinant UMP/CMP kinase from U. maydis, Lineweaver-Burk plot (FIG. 4A/4B)
# Experimental: The ADP produced in the reaction is measured by the coupled reaction with pyruvate kinase and lactate dehydrogenase. Here the pyruvate produced in the reaction of the pyruvate kinase is converted to lactate by the lactate dehydrogenase with the use of NADH.
# The activity and/or decrease or increase in activity of the inventive polypeptide can therefore occur by coupling this reaction with the enzymatic conversion of the ADP by the pyruvate kinase and the subsequent enzymatic conversion by the lactate dehydrogenase of the pyruvate produced. This makes use of the fact that the pyruvate produced in the reaction of the pyruvate kinase is converted to lactate by the lactate dehydrogenase (LDH) with the consumption of NADH.
# The co-substrate NADH consumed in the reaction of the LDH has an extinction maximum at 340 nm.
# [2] = system: O=c1ccn([C@@H]2O[C@H](COP(=O)(O)O)[C@@H](O)[C@H]2O)c(=O)[nH]1; assay: purified protein, by the assay type; conditions: other: substrate Km of the recombinant UMP/CMP kinase from U. maydis, Lineweaver-Burk plot (FIG. 4A/4B)
substance,measurement,setting,value
UMP/CMP kinase from Ustilago maydis (Mycosarcoma maydis),Km,[1],60 µM
same,Km,[2],120 µM
